Tests used:
Settings in all cases: remark: other sources report otherwise
[1] = molecular target: recombinant homotrimeric HA, A/Hong Kong/2108/03 H9N2 (Influenza A virus A/Hong Kong/2108/03 (H9N2)); test: trimeric HA microarray, transfection set 2
[2] = molecular target: recombinant homotrimeric HA, A/Hong Kong/1073/99 H9N2 (Influenza A virus A/Hong Kong/1073/99 (H9N2)); test: trimeric HA microarray, transfection set 2
[3] = molecular target: T1, recombinant homotrimeric HA, A/Solomon Islands/3/06 H1N1 (Influenza A virus A/Solomon Islands/3/06 (H1N1)); test: trimeric HA microarray, transfection set 2
[4] = molecular target: T2, recombinant homotrimeric HA, A/California/4/09 H1N1 (Influenza A virus A/California/4/09 (H1N1)); test: trimeric HA microarray, transfection set 2
[5] = molecular target: recombinant homotrimeric HA, A/Netherlands/219/03 H7N7 (Influenza A virus A/Netherlands/219/03 (H7N7)); test: trimeric HA microarray, transfection set 2
[6] = molecular target: recombinant homotrimeric HA, A/duck/Yangzhou/02/05 H8N4 (Influenza A virus A/duck/Yangzhou/02/2005 (H8N4)); test: trimeric HA microarray, transfection set 2
[7] = molecular target: T3, recombinant homotrimeric HA, A/Wisconsin/67/05 H3N2 (Influenza A virus A/Wisconsin/67/05 (H3N2)); test: trimeric HA microarray, transfection set 2
[8] = molecular target: recombinant homotrimeric HA, A/swine/Ontario/01911-2/99 H4N6 (Influenza A virus A/swine/Ontario/01911-2/99 (H4N6)); test: trimeric HA microarray, transfection set 2
[9] = molecular target: recombinant homotrimeric HA, A/common magpie/Hong Kong/5052/07 H5N1 (Influenza A virus A/common magpie/Hong Kong/5052/07 (H5N1)); test: trimeric HA microarray, transfection set 2
[10] = molecular target: T4, recombinant homotrimeric HA, A/Japan/305/57 H2N2 (Influenza A virus A/Japan/305/57 (H2N2)); test: trimeric HA microarray, transfection set 2
[11] = molecular target: recombinant homotrimeric HA, A/chicken/Vietnam/NCVD-016/08 H5N1 (Influenza A virus A/chicken/Vietnam/NCVD-016/08 (H5N1)); test: trimeric HA microarray, transfection set 2
[12] = molecular target: recombinant homotrimeric HA, A/Anhui/1/05 H5N1 (Influenza A virus A/Anhui/1/05 (H5N1)); test: trimeric HA microarray, transfection set 2
[13] = molecular target: T5, recombinant homotrimeric HA, A/Vietnam/1203/04 H5N1 (Influenza A virus A/Vietnam/1203/04 (H5N1)); test: trimeric HA microarray, transfection set 2
[14] = molecular target: T6, recombinant homotrimeric HA, A/Indonesia/5/05 H5N1 (Influenza A virus A/Indonesia/5/05 (H5N1)); test: trimeric HA microarray, transfection set 2
[15] = molecular target: recombinant homotrimeric HA, A/Egypt/3300-NAMRU3/08 H5N1 (Influenza A virus A/Egypt/3300-NAMRU3/08 (H5N1)); test: trimeric HA microarray, transfection set 2
[16] = molecular target: recombinant homotrimeric HA, A/northern shoveler/California/HKWF115/07 (Influenza A virus A/northern shoveler/California/HKWF115/2007 (H6N1)); test: trimeric HA microarray, transfection set 2
[17] = molecular target: T7, recombinant homotrimeric HA, A/South Carolina/1/18 H1N1 (Influenza A virus A/South Carolina/1/18 (H1N1)); test: trimeric HA microarray, transfection set 2
[18] = molecular target: T1, recombinant homotrimeric HA, A/Solomon …; test: trimeric HA microarray, transfection set 4
[19] = molecular target: T2, recombinant homotrimeric HA, …; test: trimeric HA microarray, transfection set 4
[20] = molecular target: T3, recombinant homotrimeric HA, …; test: trimeric HA microarray, transfection set 4
[21] = molecular target: T4, recombinant homotrimeric HA, …; test: trimeric HA microarray, transfection set 4
[22] = molecular target: T5, recombinant homotrimeric HA, …; test: trimeric HA microarray, transfection set 4
[23] = molecular target: T6, recombinant homotrimeric HA, …; test: trimeric HA microarray, transfection set 4
[24] = molecular target: T7, recombinant homotrimeric HA, A/South …; test: trimeric HA microarray, transfection set 4

Row | Binder | Trimeric HA Binding RLU [1] [RLU] | Trimeric HA Binding RLU [2] [RLU] | Trimeric HA Binding RLU [3] [RLU] | Trimeric HA Binding RLU [4] [RLU] | Trimeric HA Binding RLU [5] [RLU] | Trimeric HA Binding RLU [6] [RLU] | Trimeric HA Binding RLU [7] [RLU] | Trimeric HA Binding RLU [8] [RLU] | Trimeric HA Binding RLU [9] [RLU] | Trimeric HA Binding RLU [10] [RLU] | Trimeric HA Binding RLU [11] [RLU] | Trimeric HA Binding RLU [12] [RLU] | Trimeric HA Binding RLU [13] [RLU] | Trimeric HA Binding RLU [14] [RLU] | Trimeric HA Binding RLU [15] [RLU] | Trimeric HA Binding RLU [16] [RLU] | Trimeric HA Binding RLU [17] [RLU] | other results
1 | TCN-527 (5086_C06) (antibody, V domains shown) VH: QVQLQESGPGLVKPSETLSLNCAVSGGSISNYYWSWIRQPPGKGLEWIGYISYNGRPKYNPSLTSRVTISVDTSKDQFSLELRSVTAADTALYYCARETRFGELLSPYDAFEIWGQGTMVTVSS VL: DIQMTQSPSSLSASVGDRVTMTCRASQNIRSYLNWYQQRPGTAPKLLIYAASTLHSGVPSRFSGGGSGTDFTLTINNLQPEDFASYYCQQSYDNPQTFGQGTKVEIK | 25500 | 557 | 19700 | 21500 | 49100 | 17900 | 35800 | 30100 | 43800 | 20800 | 20100 | 15200 | 20600 | 23400 | 23600 | 19300 | 48100 | –
2 | TCN-528 (5087_P17) (antibody, V domains shown) VH: QVQLVQSGSEVKKPGASVKVSCKASGYTFTNYDINWIRQAPGQGLEWMGWINPNSGTTGSAQRFQGRVTITVDTSITTVYMELSSLRSDDTAIYYCARGRELLRLQHFLTDSQSERRDCFDPWGQGTLVTVSS VL: DIQMTQSPSSLSASVGDRVTITCRANQDIGIYLNWYQQNPGKVPKLLLHGASSLQGGVPSRFSASGSGTDFTLTIHSLQPEDLATYYCQQSRRLPYTFGQGTRVELK | 33600 | 322 | 26900 | 44600 | 47200 | 19800 | 46000 | 49200 | 45300 | 23100 | 22600 | 21200 | 23300 | 39700 | 36800 | 28400 | 25200 | –
3 | TCN-563 (5237_B21) (antibody, V domains shown) VH: QVQLAQSGAEVKRPGSSVKVSCTASGGIFRKNAISWVRQAPGQGLEWMGGIIAVFNTANYAQKFQGRVKITADESGNTAYMELSSLRSDDTAVYYCASHPKYFYGSGSYPDFWGQGTLVTVSS VL: QSALTQPRSVSGSPGQSVTISCTGSSSDVGASNSVSWYQQHPGKAPKLVIYDVTERPSGVPHRFSGSKSGNTASLTVSGLQPEDEADYFCCAYGGKYLVVFGGGTKVTVL | 364 | 49200 | 26500 | 21200 | 5420 | 6280 | 23700 | – | 52800 | 11200 | 36300 | 1570 | 31500 | 47300 | 23900 | 21900 | 17800 | –
4 | TCN-534 (5249_B02) (antibody, V domains shown) VH: QVQLVQSGAEVKKPGSSVKVSCRESGGTFNGYTITWVRQAPGQGLEWMGGIIPMMGTVNYAQKLQGRVTITTDYFTKTAYMDLNNLRSEDTAMYYCVKIRYTGQQLLWGQGTLVTVSS VL: DIQMTQSPSTLSASIGDRVTITCRASQSIASWLAWYQQKPGKAPKLLIYEAVNLESGVPSRFSGSGSGTDFTLTISSLQPDDFATYFCQHYGTISQTFGGGTKVEIK | – | – | – | – | – | – | – | – | – | – | – | – | – | – | – | – | – | Trimeric HA Binding RLU [18]: 60 RLU; Trimeric HA Binding RLU [19]: 27000 RLU; Trimeric HA Binding RLU [20]: 897 RLU; Trimeric HA Binding RLU [21]: 14700 RLU; Trimeric HA Binding RLU [22]: 23700 RLU; Trimeric HA Binding RLU [23]: 948 RLU; Trimeric HA Binding RLU [24]: 11800 RLU
